{
  "source": "patent US9873733B2",
  "about": "“Anti-staphylococcal antibodies” (priority 2012, dated 2018)",
  "molecules": {"B1": {"name": "M-C4.2: human IgG1 against cyclic peptide, loop 4 of MprF; VH3-23 kappa 1; VL Seq. ID: 54, VH Seq. ID: 55 (antibody, V domains shown)", "VH": "EVQLLESGGGLVQPGGSLRLSCAASGFTFSSYAMHWVRQAPGKGLEWVSVISSVGSSTYYADSVKGRFTISRDNSKNTLYLQMNSLRAEDTAVYYCARGGLDVWGQGTLVTVSS", "VL": "DIQMTQSPSSLSASVGDRVTITCRASQDISKYLNWYQQKPGKAPKLLIYAASRLQSGVPSRFSGSGSGTDFTLTISSLQPEDFATYYCQQGDSTPFTFGQGTKVEIKRT", "modifications": "MC42 VH; MC42 VL", "notes": "human IgG1 against cyclic peptide, loop 4 of MprF; VH3-23 kappa 1; ID: 55"}, "B2": {"name": "M-C5.1: human IgG1 against cyclic peptide, loop 5 of MprF; VH1A kappa 1; VL Seq. ID: 74, VH Seq. ID: 75 (antibody, V domains shown)", "VH": "QVQLVQSGAEVKKPGSSVKVSCKASGGTFSSYAISWVRQAPGQGLEWMGGIVPIFGTANYAQKFQGRVTITADESTSTAYMELSSLRSEDTAVYYCARVRYGYWDVWGQGTLVTVSS", "VL": "B1 VL with S30A, K31N, Y32W, R53S, G91Y, D92I, T94L, F96I", "modifications": "MC51 VH; MC51 VL", "notes": "human IgG1 against cyclic peptide, loop 5 of MprF; VH1A kappa 1; ID: 75"}, "B3": {"name": "M-C6.2: human IgG1 against cyclic peptide, loop 6 of MprF; VH1A kappa 1; VL Seq. ID: 104, VH Seq. ID: 105 (antibody, V domains shown)", "VH": "QVQLVQSGAEVKKPGSSVKVSCKASGGTFSSYAISWVRQAPGQGLEWMGGIIPILGIANYAQKFQGRVTITADESTSTAYMELSSLRSEDTAVYYCARSLPYRSDLYGFSRWSYHRVGMDVWGQGTLVTVSS", "VL": "B1 VL with K31N, Y32T, R53T, G91V, D92G, T94F, F96Y", "modifications": "MC62 VH; MC62 VL", "notes": "human IgG1 against cyclic peptide, loop 6 of MprF; VH1A kappa 1; ID: 105"}, "B4": {"name": "M-L1: human IgG1 against linear peptide, loop 1 of MprF; VH1A kappa 3; VL Seq. ID: 14, VH Seq. ID: 15 (antibody, V domains shown)", "VH": "QVQLVQSGAEVKKPGSSVKVSCKASGGTFNSYAIHWVRQAPGQGLEWMGGIIPIFGIANYAQKFQGRVTITADESTSTAYMELSSLRSEDTAVYYCARDQYTYDYYRAFDYWGQGTLVTVSS", "VL": "DIVLTQSPATLSLSPGERATLSCRASQSVRDNLAWYQQKPGQAPRLLIYGASNRATGIPARFSGSGSGTDFTLTISSLEPEDFAVYYCQQYDHSPRTFGQGTKVEIKRT", "modifications": "ML1 VH; ML1 VL", "notes": "human IgG1 against linear peptide, loop 1 of MprF; VH1A kappa 3; ID: 15"}},
  "key": {"[1]": {"test_system": "Staphylococcus aureus clinical isolate 703", "assay": "Killing of clinical isolate 703 by daptomycin", "format": "cell-based", "conditions": "11 μg/ml daptomycin, in the presence of the anti-lysozyme antibody", "procedure": "(§1) Overnight cultures of S. aureus SA113 Δspa were diluted in fresh MHB medium and adjusted to OD600 0.25 (˜1.5×10^7 cells). Antibodies were adjusted to a concentration of 1 mg/ml and 10 μl were applied per well of a 96 well plate and diluted in 90 μl of the adjusted cell suspension (final antibody concentration: 100 μg/ml). Cells were grown in the presence of anti-lysozyme antibody (control) or with the anti-MprF antibodies. Duplicates were employed for each assay. After 3 hours of incubation under shaking conditions at 37° C., optical density was determined, adjusted to OD600 0.025 in 500 μl ice cold PBS buffer. 80 μl of the adjusted cell suspension were diluted with 20 μl of antimicrobial substances to final concentrations of 22.5 μg/ml nisin. After incubation for 2 hours under shaking conditions at 37° C., the cell suspensions were diluted 1:2000 and 100 μl of each duplicate was plated in triplicates on TSB medium containing agar plates to obtain a representative value of bacterial survival. Cells treated without antimicrobial substance were set at 100% and survival values were calculated with cells treated with antimicrobial substances. At least three independent assays were employed.\nIn this experiment killing of Staphylococcus aureus clinical isolate 703 (described in Jones et al., AAC 2008) by daptomycin in the presence of an MprF specific antibody was analyzed. […]"}, "[2]": {"test_system": "Staphylococcus aureus clinical isolate 703", "conditions": "Jones et al., AAC 2008; cited from earlier work"}, "S. aureus SA113": {"test_system": "S. aureus SA113", "assay": "Growth inhibition assay with nisin", "format": "cell-based, Staphylococcus aureus", "conditions": "nisin 6 μg/ml", "procedure": "(§2) Therefore S. aureus (S. aureus SA113) cells grown to mid-log phase were used to inoculate fresh TSB medium. These cultures were mixed with anti-MprF (1 μM) antibody or control IgG respectively or with anti-MprF (1 μM) antibody or control IgG in combination with nisin (6 μg/ml). The growth of the S. aureus in presence of anti-MprF antibody was monitored in culture plates shaking at 37° C. by measuring OD600. […] (FIG. 7)"}, "[3]": {"test_system": "Staphylococcus aureus clinical isolate USA300 (MRSA)", "assay": "Growth inhibition of clinical isolate USA300 by nisin", "format": "cell-based", "conditions": "nisin 4.5 μg/ml", "procedure": "as §2\nIn this experiment growth inhibition of Staphylococcus aureus clinical isolate USA300 by nisin was tested in the presence of an MprF specific antibody.\nThe experiment was performed as described in Example 5. Instead of S. aureus SA113 the clinical isolate S. aureus USA300 was used. The concentration of nisin was 4.5 μg/ml instead of 6 μg/ml nisin."}, "[4]": {"target": "cyclic peptide representing loop 4 of MprF (Staphylococcus aureus, UniProt Q2G2M2)", "conditions": "IgG in PBS; biotinylated cyclic peptide 5 μg/ml", "procedure": "(§3) The IgGs were tested for binding to the antigen, which was used in their selection. Also binding to other MprF-peptides was tested to check for selectivity.\n(§4) For ELISAs with cyclic antigen, the biotinylated cyclic peptides (final conc. 5 μg/ml) were incubated with IgGs in PBS. Then the mix was transferred to a pre-blocked Neutravidin plate (Thermo Scientific), incubated and then the plate was washed with PBS containing 0.5% of TWEEN20. MprF-specific IgGs were detected using goat-anti-human IgG (Sigma).\n(§5) In both cases washing was performed using PBST ([…] with 0.05% TWEEN20. Detection was performed using alkaline phosphatase coupled Goat anti-human IgG (Sigma Cat. # A-8542 and Attophos™ substrate Roche, Cat. #11681982001). Fluorescence was measured at an excitation of 440±25 nm and an emission of 550±35 nm. Full signal intensity is typically reached after 5-15 min at room temperature."}, "S. aureus SA113 Δspa": {"test_system": "S. aureus SA113 Δspa", "assay": "Killing of S. aureus by nisin with MprF antibodies", "format": "cell-based, Staphylococcus aureus", "conditions": "antibody 100 μg/ml, 22.5 μg/ml nisin, 2 hours; anti-lysozyme antibody as control", "procedure": "In this experiment killing of Staphylococcus aureus was tested. Nisin was used as an exemplary cationic antimicrobial compound. Nisin was tested in combination with selected antibodies of the present invention. An anti-lysozyme antibody was used as a negative control.\nas §1"}, "[5]": {"target": "cyclic peptide representing loop 5 of MprF (Staphylococcus aureus, UniProt Q2G2M2)", "conditions": "IgG in PBS; biotinylated cyclic peptide 5 μg/ml", "procedure": "as §3, §4, §5"}, "[6]": {"test_system": "MprF on S. aureus (Protein A deletion mutant, delta spa)", "assay": "Whole cell ELISA on S. aureus", "format": "binding, Staphylococcus aureus", "conditions": "E. coli as negative control", "procedure": "(§6) The specificity of the purified antibodies was tested for binding to whole cell Staphylococcus aureus in an ELISA assay. Escherichia coli bacteria were used as a negative control.\n(§7) For ELISA on S. aureus the Protein A deletion mutant (delta spa) or the mutant with an additional deletion in MprF (delta spa delta mprf) were grown to mid log phase, than washed in PBS and resuspended in saline to a final OD600 of 0.6. This bacterial culture was coated on Maxisorp plates (Nunc). Plates were blocked with 2% BSA/PBS and washed with TSB containing 0.5% TWEEN20."}, "[7]": {"test_system": "S. aureus mutants lacking MprF expression (delta spa delta mprF)", "assay": "Whole cell ELISA on S. aureus mutant lacking MprF", "format": "binding, Staphylococcus aureus", "conditions": "compared with delta spa", "procedure": "as §6, §7"}, "[8]": {"target": "cyclic peptide representing loop 6 of MprF (Staphylococcus aureus, UniProt Q2G2M2)", "conditions": "IgG in PBS; biotinylated cyclic peptide 5 μg/ml", "procedure": "as §3, §4, §5"}, "[9]": {"target": "linear peptide representing loop 1 of MprF (Staphylococcus aureus, UniProt Q2G2M2)", "sequence (Q2G2M2 31-50, looked up, natural form)": "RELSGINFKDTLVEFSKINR", "conditions": "IgG at various concentrations; peptide 5 μg/ml", "procedure": "as §3\nMprF-specific IgGs were detected using goat-anti-human IgG (Sigma).\nas §5"}},
  "note": "Changes are numbered by the printed parent chain.",
  "data": [
    {"molecule": "CCCCCCCCCC(=O)N[C@@H](Cc1c[nH]c2ccccc12)C(=O)N[C@H](CC(N)=O)C(=O)N[C@@H](CC(=O)O)C(=O)N[C@@H]1C(=O)NCC(=O)N[C@@H](CCCN)C(=O)N[C@@H](CC(=O)O)C(=O)N[C@H](C)C(=O)N[C@@H](CC(=O)O)C(=O)NCC(=O)N[C@H](CO)C(=O)N[C@@H]([C@H](C)CC(=O)O)C(=O)N[C@@H](CC(=O)c2ccccc2N)C(=O)O[C@@H]1C", "note": "[daptomycin, reference compound]", "values": [
      {"measurement": "Effect of daptomycin on S. aureus 703", "setting": "[1]", "result": "no effect on S. aureus 703"},
      {"measurement": "Responsiveness of S. aureus clinical isolate 703 to daptomycin", "setting": "[2]", "result": "non-responsive to daptomycin"}
    ]},
    {"molecule": "nisin", "values": [
      {"measurement": "Growth of S. aureus (OD600), nisin alone", "setting": "S. aureus SA113", "result": "an effect of nisin alone in terms of reducing growths of bacteria was observable"},
      {"measurement": "Growth of S. aureus USA300, nisin alone", "setting": "[3]", "result": "an effect of nisin alone in terms of reducing bacterial growths was observed"}
    ]},
    {"molecule": "B1", "values": [
      {"measurement": "Specific binding to cyclic loop 4 peptide (ELISA)", "setting": "[4]", "result": "specifically bind to cyclic loop 4 peptide in a dose-dependent manner"},
      {"measurement": "Sensitivity of S. aureus towards nisin (killing, bacterial survival)", "setting": "S. aureus SA113 Δspa", "result": "most pronounced effects"}
    ]},
    {"molecule": "B2", "values": [
      {"measurement": "Specific binding to cyclic loop 5 peptide (ELISA)", "setting": "[5]", "result": "specifically bind to cyclic loop 5 peptide in a dose-dependent manner"},
      {"measurement": "Binding to whole cell S. aureus (ELISA)", "setting": "[6]", "result": "detect MprF on S. aureus"},
      {"measurement": "Sensitivity of S. aureus towards nisin (killing, bacterial survival)", "setting": "S. aureus SA113 Δspa", "result": "most pronounced effects"},
      {"measurement": "Binding to S. aureus mutants lacking MprF expression (ELISA)", "setting": "[7]", "result": "significantly weaker binding"}
    ]},
    {"molecule": "B3", "values": [
      {"measurement": "Specific binding to cyclic loop 6 peptide (ELISA)", "setting": "[8]", "result": "specifically bind to cyclic loop 6 peptide in a dose-dependent manner"},
      {"measurement": "Sensitivity of S. aureus towards nisin (killing, bacterial survival)", "setting": "S. aureus SA113 Δspa", "result": "most pronounced effects"}
    ]},
    {"molecule": "B4", "values": [
      {"measurement": "Specific binding to linear loop 1 peptide (ELISA)", "setting": "[9]", "result": "specifically bind to linear loop 1 peptide in a dose-dependent manner"},
      {"measurement": "Binding to whole cell S. aureus (ELISA)", "setting": "[6]", "result": "detect MprF on S. aureus"},
      {"measurement": "Binding to S. aureus mutants lacking MprF expression (ELISA)", "setting": "[7]", "result": "significantly weaker binding"}
    ]}
  ]
}
